Drawing on PMC4244684 (The Journal of biological chemistry, 2007), this text covers Kd for 3 molecules.

Assay in all cases: ITC
A general note: Isothermal titration calorimetry measures the heat released or taken up as one component is titrated into another.

Assay [1] addresses Su(dx) WW4 domain (Drosophila, UniProt Q9Y0H4 515-557).
For assay [2], the target named is Su(dx) WW3-4 tandem domain pair (Drosophila, UniProt Q9Y0H4 474-554).
The target of assay [3] is T1, Su(dx) WW2 domain (Drosophila, UniProt Q9Y0H4 392-431).
T1 sequence (Q9Y0H4 392-431): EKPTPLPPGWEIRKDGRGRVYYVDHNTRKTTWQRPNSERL
In assay [4] the target is T2, Su(dx) WW3 domain (Drosophila, UniProt Q9Y0H4 471-514).
T2 sequence (Q9Y0H4 471-514): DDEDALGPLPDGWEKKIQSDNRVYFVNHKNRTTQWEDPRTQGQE
For assay [5], the target named is T1, Su(dx) WW2 domain. The source holds these as a separate data set.
The target in assay [6] is T2, Su(dx) WW3 domain. This is another data set of the same source.
The target in assay [7] is T3, Su(dx) WW1 domain (Drosophila, UniProt Q9Y0H4 352-398).
T3 chain (looked up): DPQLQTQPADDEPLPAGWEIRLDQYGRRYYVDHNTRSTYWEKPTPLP

In assay [8] the target is Su(dx) WW4 (F549W) mutant domain (Drosophila, UniProt Q9Y0H4 515-557, F549W).
Chain of Su(dx) WW4 (F549W) mutant domain (Q9Y0H4 515-557 F549W): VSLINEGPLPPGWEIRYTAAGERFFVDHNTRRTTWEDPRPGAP
Assay [9] deals with Su(dx) WW3-4 (W505F) mutant tandem pair (Drosophila, UniProt Q9Y0H4 474-554, W505F).
Chain of Su(dx) WW3-4 (W505F) mutant tandem pair (Q9Y0H4 474-554 W505F): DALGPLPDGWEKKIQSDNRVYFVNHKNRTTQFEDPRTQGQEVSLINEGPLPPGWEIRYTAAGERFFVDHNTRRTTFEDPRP
Assay [10] addresses Su(dx) WW3-4 preloaded (saturated) with WBP1 peptide (Drosophila | , UniProt Q9Y0H4 474-554).

What is called Kd is a measure of binding affinity in units of concentration. A lower Kd goes with a tighter complex.

Like-named read-outs stand apart in the source and are kept apart here.

Chain of Su(dx) WW4 domain (Q9Y0H4 515-557): as the sequence (Q9Y0H4 515-557 F549W) above, with W35F counted along it
Chain of Su(dx) WW3-4 tandem domain pair (Q9Y0H4 474-554): as the sequence (Q9Y0H4 474-554 W505F) above, with F32W counted along it
Chain of Su(dx) WW3-4 preloaded (saturated) with WBP1 peptide (Q9Y0H4 474-554): as the sequence (Q9Y0H4 474-554 W505F) above, with F32W counted along it

AKQPPSYEDC [Notch PY motif peptide N2] returned a Kd in assay [1] of 45 µM.
For the molecule GPPPPPYPG [WBP1 peptide], the Kd came out at 185 µM in assay [2]; 117 µM in [3]; 115 µM in assay [4]; 116 µM in assay [5]; 114 µM in assay [6]; 125 µM in assay [7]. Also, in [8], binding was put at a Kd of 31 µM.
In the case of AKQPPSYEDCIK [Notch PY motif peptide N1], the Kd in assay [2] is 95 µM; in [1] it was 45 µM; in assay [5] it was 199 µM; in assay [9] it was 97 µM; in assay [6] it was 208 µM; in assay [7] it was 214 µM. Further, the Kd in assay [8] is 15 µM; in [10], 42 µM.
